The values below come from paper PMC12638815, “Targeting ACE2 with a camelid antibody inhibits SARS-CoV-2 binding and has protective effects in vivo” (Nature Communications, 2025).

The labels stand for the following.
B3: endogenous ACE2 on Vero E6 cells (receptor, simian (endogenous in Vero E6))
chain: QSTIEEQAKTFLDKFNHEAEDLFYQSSLASWNYNTNITEENVQNMNNAGEKWSAFLKEQSTLAQMYPLQAIQNLTVKLQLQALQQNGSSVLSEDKSKRLNTILNTMSTIYSTGKVCNPNNPQECLLLDPGLNEIMEKSLDYNERLWAWEGWRSEVGKQLRPLYEEYVVLKNEMARANHYKDYGDYWRGDYEVNGVDGYDYNRDQLIEDVERTFEEIKPLYEHLHAYVRAKLMNAYPSYISPTGCLPAHLLGDMWGRFWTNLYSLTVPFGQKPNIDVTDAMVNQAWNAQRIFKEAEKFFVSVGLPNMTQGFWENSMLTDPGNVQKVVCHPTAWDLGKGDFRIIMCTKVTMDDFLTAHHEMGHIQYDMAYAAQPFLLRNGANEGFHEAVGEIMSLSAATPKHLKSIGLLSPDFQEDNETEINFLLKQALTIVGTLPFTYMLEKWRWMVFKGEIPKDQWMKKWWEMKREIVGVVEPVPHDETYCDPASLFHVSNDYSFIRYYTRTLYQFQFQEALCQAAKHEGPLHKCDISNSTEAGQKLLNMLKLGKSEPWTLALENVVGAKNMNVRPLLNYFEPLFTWLKDQNKNSFVGWSTDWSPYADQSIKVRISLKSALGANAYKWNDNEMYLFRSSVAYAMRQYFLENKHQTILFGEEDVRVADLKPRISFNFYVTAPKNVSDIIPRTEVEEAIRFSRSRINDAFQLNDNSLEFLGIQSTLIPPYQSPVTTWLIVFGVVMAVIVAGIVVLIFTGIRDRKKKNQARSEENPYASIDISKGENNPGFQNTDDVQTSF
notes: ACE2 endogenously expressed by the simian kidney cell line Vero E6; also called non-human ACE2 (Vero E6); source: endogenous, Vero E6 cells

Assay [1] deals with T1, soluble human ACE2 peptidase domain (residues 19-615), untagged (Homo sapiens, UniProt Q9BYF1).
T1 construct: human ACE2 peptidase domain, residues 19-615, secreted with an IgK signal peptide; Residues of the thrombin site may remain at the C-terminus after cleavage; also called sACE2; soluble hACE2; source: Expi293F cells with kifunensine, purified (Streptactin, SEC, thrombin cleavage, SEC); not shown: His8, C-terminal, cleaved; Strep, C-terminal, cleaved
T1 sequence (Q9BYF1 19-615): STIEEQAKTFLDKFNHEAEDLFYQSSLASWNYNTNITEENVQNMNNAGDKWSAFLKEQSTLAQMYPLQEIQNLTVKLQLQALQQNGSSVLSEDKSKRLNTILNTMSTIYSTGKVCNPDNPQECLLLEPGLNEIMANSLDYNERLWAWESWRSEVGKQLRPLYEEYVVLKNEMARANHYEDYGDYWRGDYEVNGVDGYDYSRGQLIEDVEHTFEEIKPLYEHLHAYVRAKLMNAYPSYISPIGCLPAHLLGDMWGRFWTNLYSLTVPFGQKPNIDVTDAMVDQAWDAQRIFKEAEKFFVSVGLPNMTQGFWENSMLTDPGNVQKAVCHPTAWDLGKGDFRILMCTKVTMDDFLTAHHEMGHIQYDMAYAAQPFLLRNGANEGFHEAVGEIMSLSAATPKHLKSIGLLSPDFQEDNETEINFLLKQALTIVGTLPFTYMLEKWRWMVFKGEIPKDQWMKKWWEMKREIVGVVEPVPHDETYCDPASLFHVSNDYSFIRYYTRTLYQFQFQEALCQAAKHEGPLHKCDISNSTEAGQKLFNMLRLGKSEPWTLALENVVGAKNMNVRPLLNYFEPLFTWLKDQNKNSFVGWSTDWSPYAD
The experiment in a line: BLI; VHH-His immobilised on Ni-NTA biosensors, soluble hACE2 as analyte; PBS working buffer with 300 mM NaCl, pH 7.2, 30 °C; 1:1 fit, apparent KD. The note with it: both partners purified. On the technique in general: Biolayer interferometry detects binding as a change in optical thickness at a sensor tip.

The target of assay [2] is B3. The experiment in a line: flow cytometry on cells; cell lines with exogenous or endogenous ACE2 incubated with 10 µg/mL VHH, 60 min at 4 °C; anti-myc and fluorescent anti-mouse antibody; parental cells or a control VHH as negative controls. Conditions: one partner purified.
Assay [3] has as its target T2, hACE2 peptidase domain fused to a human Fc from IgG (Homo sapiens, UniProt Q9BYF1).
T2 construct: human angiotensin-converting enzyme 2, peptidase domain; also called hACE2-Fc; sACE2-Fc
The experiment in a line: BLI; hACE2-Fc immobilised on AHC biosensors (1 µg/mL), monomeric VHHs as analytes; PBS working buffer with 300 mM NaCl, pH 7.2, 30 °C; global 1:1 fit, apparent KD. Conditions: both partners purified.

Assay [4] concerns the target T3, VHH B07-Fc (VHH B07 in fusion with the human IgG1 Fc segment) (alpaca).
T3 construct: also called dimeric VHH-Fc; source: Expi293 cells, transfected, purified from supernatant (HiTrap protein A, SEC Superdex 75); not shown: Fc (human IgG1; hinge, CH2 and CH3), C-terminal, kept
The experiment in a line: flow cytometry on cells; cell lines with exogenous or endogenous ACE2 incubated with 0.1 µg/mL VHH-Fc, 60 min at 4 °C; fluorescent anti-human IgG antibody. Conditions: one partner purified. In general terms: Flow cytometry measures light scatter and fluorescence of single cells or particles in a stream.

B1: VHH B07 (VHH)
VHH: EVQLQASGGGLVQAGGSLRLSCAASRSTFSTNTIGWYRQAPGKQRELVASISTSGNTYYPDSVKGRFAISRDNAENTVYLQMNSLKPEDTAVYYCNTPSRRISNFWGQGTQVTVSS
notes: alpaca VHH from phage display (gene IGHV3S53); Expressed from pHEN6 with c-myc and His tags at the C-terminal end; also called anti-hACE2 VHH B07; source: E. coli TG1 periplasm, purified (His pure Cobalt sepharose beads); not shown: c-myc, C-terminal, kept; His, C-terminal, kept
For B1, the results for the Kd in assay [1] and in assay [3] were 1140 nM and 242 nM, respectively. The binding result in assay [2] is reported as “binds”.

B2: VHH B09 (VHH)
VHH: QVQLVESGGGLVQAGGSLRLSCATSRSTFSSNTIGWYRQAPGKQRELVASISTSGNTYYADSVKGRFAISRDNAENTVYLQMNSLKPEDTAVYYCNTPSRRISNFWGQGTQVTVSS
notes: No structure of B09 was solved; also called anti-hACE2 VHH B09; source: E. coli TG1 periplasm, purified (His pure Cobalt sepharose beads); not shown: c-myc, C-terminal, kept; His, C-terminal, kept
On to B2, for which the Kd in assay [1] stood at 1960 nM; in assay [3] it was 214 nM. Also, the binding result in assay [2] was “binds”.

For B3, in assay [4], the binding result is recorded as “binds”.

B4: VHH B10 (VHH)
VHH: QVQLVESGGGLVQAGDSLRLSCAASGRTFSSYAMGWFRQALGKEREFVAVISGSGTSTYYTDSVKGRFTISRDNAKNTVYLQMNSLKPEDTAVYYCARAKGFSTIYNQDEGRYDYWGQGTQVTVSS
notes: alpaca VHH from phage display (gene IGHV3-3); also called anti-hACE2 VHH B10; source: E. coli TG1 periplasm, purified (His pure Cobalt sepharose beads); not shown: c-myc, C-terminal, kept; His, C-terminal, kept
B4: the figures for the Kd in assay [1] and in assay [3] were 22 nM and 21 nM, respectively. In assay [2], the binding result is given as “binds”.
